The source of these data is publication PMC3627599.

Series [1] deals with T1, MAZ (Homo sapiens (pGEX-hMAZ), UniProt P56270 1-477).
T1 sequence: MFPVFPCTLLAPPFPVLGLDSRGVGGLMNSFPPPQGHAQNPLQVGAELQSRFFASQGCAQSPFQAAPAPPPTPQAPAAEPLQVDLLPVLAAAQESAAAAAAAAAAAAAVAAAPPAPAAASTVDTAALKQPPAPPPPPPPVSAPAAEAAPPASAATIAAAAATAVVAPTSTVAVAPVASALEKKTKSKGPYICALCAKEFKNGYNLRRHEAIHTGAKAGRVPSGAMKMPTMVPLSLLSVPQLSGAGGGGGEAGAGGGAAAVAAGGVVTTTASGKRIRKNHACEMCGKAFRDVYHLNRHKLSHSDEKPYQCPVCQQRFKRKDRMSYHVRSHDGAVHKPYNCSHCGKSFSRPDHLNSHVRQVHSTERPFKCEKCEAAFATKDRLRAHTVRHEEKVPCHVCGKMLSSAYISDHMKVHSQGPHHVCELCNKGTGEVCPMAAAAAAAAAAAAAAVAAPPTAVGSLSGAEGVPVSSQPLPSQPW
The series is described as follows: double-filter binding.

Series [2] addresses T1, MAZ. Kind of series: competition.

What is called Kd is the concentration at which binding is half-saturated. Turning to GCGGTGTGGGAAGAGGGAAGAGGGGGAGGCAG (structured_DNA) [32R-3n], in the series with MAZ [1], the Kd worked out at 320 ± 2 nM.
Regarding GCGGTGTGGGAAGAGGGAAGAGGGGGAGGCAG (XNA, AMANY inserted after G10 and after A21; 2 LNA at 3' end) [3044], in the series with MAZ [2], the binding result is listed as “binds”.
